Reference: publication PMC9233197, “Neuropeptide signalling shapes feeding and reproductive behaviours in male Caenorhabditis elegans” (Life Science Alliance, 2022)
No end group written: not given here.

Molecular target: T1, NPR-22 (Caenorhabditis elegans, UniProt Q59E83)
T1 construct: host or cells: CHO-K1 cells (CHO/mtAEQ/Gα16) transiently transfected with NPR-22 cDNA in pcDNA3.1 TOPO
T1 sequence (Q59E83 1-434): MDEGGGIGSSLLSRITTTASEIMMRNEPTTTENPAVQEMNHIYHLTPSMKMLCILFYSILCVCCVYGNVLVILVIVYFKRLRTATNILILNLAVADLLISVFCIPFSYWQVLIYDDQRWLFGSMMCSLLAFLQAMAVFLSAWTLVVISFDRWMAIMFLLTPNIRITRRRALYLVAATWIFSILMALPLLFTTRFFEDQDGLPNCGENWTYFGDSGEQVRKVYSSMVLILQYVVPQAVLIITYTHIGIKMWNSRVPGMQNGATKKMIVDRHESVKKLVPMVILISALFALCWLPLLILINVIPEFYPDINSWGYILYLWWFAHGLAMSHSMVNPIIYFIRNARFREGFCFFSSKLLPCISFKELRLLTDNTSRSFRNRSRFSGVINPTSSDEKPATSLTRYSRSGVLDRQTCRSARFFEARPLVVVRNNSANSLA
Assay: In vitro GPCR activation assay (aequorin bioluminescence, CHO/mtAEQ/Gα16 cells transfected with NPR-22)
Type: cell-based
Conditions: dose–response, n = 6–8 trials
Text: Figure 1. Neuropeptide lury-1 and its receptor npr-22 are expressed in different cells in the two sexes of C. elegans. […] In males, there is additional expression in cells in the tail (white arrows). Dashed outlines indicate worm body and position of pharyngeal bulbs in the head. Scale bar = 10 μm. (B) Identification of lury-1–expressing male tail neurons using NeuroPAL ([Tekieli et al, 2021]; [Yemini et al, 2021]). The lury-1 reporter line used here is JN2443 (Plury-1::Venus, unc-122p::mCherry). […] DX1–DX3 are annotated in the image. Nuclear fluorescence in other neurons is in pseudocolour as in [Yemini et al (2021)]. Scale bar = 10 μm. […] The corresponding EC50 values (M) for each peptide are as indicated. Line represents non-linear regression fit of a variable slope line using three parameters. n = 6–8 trials. […] Expression in male copulatory apparatus is also observed. Dashed outlines indicate worm body and position of pharyngeal bulbs in the head. Scale bar = 10 μm. […]
Cell-based activation assays were performed as described ([Beets et al, 2012]). […] Cells (25,000 cells/well) were exposed to synthetic peptides in BSA medium, and aequorin bioluminescence was recorded for 30 s on a MicroBeta LumiJet luminometer (PerkinElmer) in quadruplicate. […] EC50 values were calculated from dose–response curves, constructed using a nonlinear regression analysis, with sigmoidal dose–response equation (Prism 9.0).

| activation of the receptor NPR-22 in vitro (in words) | Substance |
| --- | --- |
| activate the receptor NPR-22 in vitro | LURY-1-1: peptide encoded by the LURY-1 precursor (luqin RYamide) of C. elegans; synthetic peptide in the assay (PALLSRY; ends and bridges not checked; UniProt Q9XW71 29-35, looked up) |
| activate the receptor NPR-22 in vitro | LURY-1-2: peptide encoded by the LURY-1 precursor (luqin RYamide) of C. elegans; synthetic peptide in the assay (AVLPRY; ends and bridges not checked; UniProt Q9XW71 38-43, looked up) |
